Measurements reported in patent publication US4446316A, “Dextran derivative of fibrinolysin” (Vsesojuzny Kardiologichesky Nauchny Tsentr, priority 1980, dated 1984).
“Also recorded” adds a separate entry of the source.

Columns and labels:
[1] = system: blood coagulation; assay: Blood coagulation and bleeding during therapy of experimental thrombosis; format: in vivo, rabbit
Excerpt: (§1) The study of the specific (thrombolytic) effect of the polysaccharide fibrinolysin derivative according to the present invention has been studied on models of thromboses of a rabbit's jugular vein and a dog's femoral vein or artery. Thrombi of 1 to 2.5 cm size were formed in the above-mentioned animals which fully obliterated the cross-section of a blood vessel. The administration of the test preparation at the background of heparin was started one hour after the thrombus formation.
(§2) On the basis of an expected prolonged fibrinolytic effect of the preparation according to the present invention, a test dose of the preparation ranging from 400 to 4,000 units per kg of the bodyweight is dissolved in a physiological solution, 20-30 ml for rabbits and 50-100 ml for dogs, and injected by means of a syringe in a jet-like manner intravenously over 20 minutes, not following the instruction on the use of fibrinolysin (intravenously by the dropwise method at a rate of 10-12 drops per minute).
(§3) The dynamics of the thrombus formation and lysis was observed visually and by palpation during 6 hours of the experiment, after one, two and three days. The angiography and fluorometry were carried out prior to the beginning of the treatment and one day after the administration of the preparation.

[2] = system: thrombin time; assay: Thrombin time in dogs with experimental thrombosis; format: in vivo, dog
Excerpt: (§4) The prolonged effect of the fibrinolysin derivative according to the present invention has been studied in experiments on dogs in comparison with the effect of native fibrinolysin.
Variation of thrombin time (in seconds) in dogs with expe-
rimental thrombosis after administration of the fibrinolysin
derivative according to the present invention and native

[3] = system: thromboses of a dog's femoral vein or artery; assay: Thrombolytic activity on model of thrombosis of dog's femoral vein (lysis of thrombus); format: in vivo; settings: dogs, n=1
Excerpt: as §1, §2, §3

[4] = system: thromboses of a rabbit's jugular vein; assay: Thrombolytic activity on model of thrombosis of rabbit's jugular vein (lysis of thrombus); format: in vivo
Excerpt: as §1, §2, §3

[5] = system: experimental thrombosis; assay: Duration of fibrinolytic effect and effective dose in experimental thrombosis; format: in vivo, rabbits, dogs
Excerpt: as §1, §2, §3

[6] = system: euglobulin fraction of dog's plasma; assay: Lysis duration of the euglobulin fraction of dog's plasma with experimental thrombosis; format: in vivo
Excerpt: as §4
Variation of lysis duration (in minutes) of the euglobulin
fraction of dog's plasma with experimental thrombosis upon
administration of the fibrinolysin derivative according to
the present invention and native fibrinolysin

[7] = Fibrinolytic activity of the preparation; format: biochemical; settings: for Specific (fibrinolytic) activity: lyophilized preparation; for Total activity relative to the initial value: of the initial value
[8] = Solubility and hygroscopicity of the preparation; format: physicochemical; settings: for Solubility in 0.9% isotonic solution of sodium chloride: 0.9% sodium chloride; for Hygroscopicity: lyophilized powder
[9] = before administration (baseline)

B1: Fibrinolysin: native enzyme; thrombolytic preparation administered intravenously (protein, UniProt P00747 20-580; P00747 581-810, looked up)
Plasmin heavy chain A: EPLDDYVNTQGASLFSVTKKQLGAGSIEECAAKCEEDEEFTCRAFQYHSKEQQCVIMAENRKSSIIIRMRDVVLFEKKVYLSECKTGNGKNYRGTMSKTKNGITCQKWSSTSPHRPRFSPATHPSEGLEENYCRNPDNDPQGPWCYTTDPEKRYDYCDILECEEECMHCSGENYDGKISKTMSGLECQAWDSQSPHAHGYIPSKFPNKNLKKNYCRNPDRELRPWCFTTDPNKRWELCDIPRCTTPPPSSGPTYQCLKGTGENYRGNVAVTVSGHTCQHWSAQTPHTHNRTPENFPCKNLDENYCRNPDGKRAPWCHTTNSQVRWEYCKIPSCDSSPVSTEQLAPTAPPELTPVVQDCYHGDGQSYRGTSSTTTTGKKCQSWSSMTPHRHQKTPENYPNAGLTMNYCRNPDADKGPWCFTTDPSVRWEYCNLKKCSGTEASVVAPPPVVLLPDVETPSEEDCMFGNGKGYRGKRATTVTGTPCQDWAAQEPHRHSIFTPETNPRAGLEKNYCRNPDGDVGGPWCYTTNPRKLYDYCDVPQCAAPSFDCGKPQVEPKKCPGR
Plasmin light chain B: VVGGCVAHPHSWPWQVSLRTRFGMHFCGGTLISPEWVLTAAHCLEKSPRPSSYKVILGAHQEVNLEPHVQEIEVSRLFLEPTRKDIALLKLSSPAVITDKVIPACLPSPNYVVADRTECFITGWGETQGTFGAGLLKEAQLPVIENKVCNRYEFLNGRVQSTELCAGHLAGGTDSCQGDSGGPLVCFEKDKYILQGVTSWGLGCARPNKPGVYVRVSRFVTWIEGVMRNN
modifications: Plasmin
notes: native enzyme; thrombolytic preparation administered intravenously
Bleeding ([1]; during treatment): bleeding
Changes in the third phase of blood coagulation ([1]; during treatment): pathological changes in the third phase of blood coagulation
Content of fibrinogen ([1]; first hours after administration): down to zero
Thrombin time ([2]; after 2 hours): 195 s
Thrombin time ([2]; after 1 day): 95 s
Thrombin time ([2]; after 2 days): 97 s
Thrombin time, initial parameter [2, 9]: 22 s
Efficiency of the therapy (lysis of thrombus) ([3]; femoral vein, 800 units/kg i.v.): no lysis
Efficiency of the therapy (lysis of thrombus) ([3]; femoral vein, 1,600 units/kg i.v.): full lysis
Efficiency of the therapy (lysis of thrombus) ([4]; rabbits, 600 units/kg i.v.): no lysis
Efficiency of the therapy (lysis of thrombus) ([4]; rabbits, 800 units/kg i.v. (Table 1: 2 animals full lysis, 1 animal no lysis)): full lysis; also recorded: no lysis
Efficiency of the therapy (lysis of thrombus) ([4]; rabbits, 800 units/kg i.v. (Table 1: 2 animals full lysis, 1 animal no lysis), listed as fibrinolysin): no thrombolytic effect in all cases
Efficiency of the therapy (lysis of thrombus) ([4]; rabbits, 1,200 units/kg i.v.): full lysis
Efficiency of the therapy (lysis of thrombus) ([4]; rabbits, 2,000 units/kg i.v.): full lysis
Death of animals ([4]; rabbits, 4,000 units/kg i.v.): death of animals
Efficiency of the therapy (lysis of thrombus) ([4]; rabbits, 4,000 units/kg i.v.): full lysis
Lysis of a thrombus at the minimal therapeutic dose ([5]; 800 units/kg of the bodyweight): does not always cause the lysis of a thrombus
Duration of the fibrinolytic effect ([5]; after administration): limited to one day
Minimal effective (therapeutical) dose ([5]; single intravenous jet-like infusion): 800 units/kg
Lysis duration of the euglobulin fraction ([6]; after 2 hours): 3 min
Lysis duration of the euglobulin fraction ([6]; after 1 day): 105 min
Lysis duration of the euglobulin fraction ([6]; after 2 days): 90 min
Lysis duration of the euglobulin fraction, initial parameter [6, 9]: 38 min

B2: 1: polysaccharide derivative of fibrinolysin from oxidized polyglucin with the molecular mass of 20,000, reduced with sodium borohydride (conjugate, UniProt P00747 20-580; P00747 581-810, looked up)
Plasmin heavy chain A: EPLDDYVNTQGASLFSVTKKQLGAGSIEECAAKCEEDEEFTCRAFQYHSKEQQCVIMAENRKSSIIIRMRDVVLFEKKVYLSECKTGNGKNYRGTMSKTKNGITCQKWSSTSPHRPRFSPATHPSEGLEENYCRNPDNDPQGPWCYTTDPEKRYDYCDILECEEECMHCSGENYDGKISKTMSGLECQAWDSQSPHAHGYIPSKFPNKNLKKNYCRNPDRELRPWCFTTDPNKRWELCDIPRCTTPPPSSGPTYQCLKGTGENYRGNVAVTVSGHTCQHWSAQTPHTHNRTPENFPCKNLDENYCRNPDGKRAPWCHTTNSQVRWEYCKIPSCDSSPVSTEQLAPTAPPELTPVVQDCYHGDGQSYRGTSSTTTTGKKCQSWSSMTPHRHQKTPENYPNAGLTMNYCRNPDADKGPWCFTTDPSVRWEYCNLKKCSGTEASVVAPPPVVLLPDVETPSEEDCMFGNGKGYRGKRATTVTGTPCQDWAAQEPHRHSIFTPETNPRAGLEKNYCRNPDGDVGGPWCYTTNPRKLYDYCDVPQCAAPSFDCGKPQVEPKKCPGR
Plasmin light chain B: VVGGCVAHPHSWPWQVSLRTRFGMHFCGGTLISPEWVLTAAHCLEKSPRPSSYKVILGAHQEVNLEPHVQEIEVSRLFLEPTRKDIALLKLSSPAVITDKVIPACLPSPNYVVADRTECFITGWGETQGTFGAGLLKEAQLPVIENKVCNRYEFLNGRVQSTELCAGHLAGGTDSCQGDSGGPLVCFEKDKYILQGVTSWGLGCARPNKPGVYVRVSRFVTWIEGVMRNN
modifications: plasmin conjugated to oxidized polyglucin, borohydride-reduced
notes: polysaccharide derivative of fibrinolysin from oxidized polyglucin with the molecular mass of 20,000, reduced with sodium borohydride
Specific (fibrinolytic) activity [7]: 21.2 units/mg
Total activity relative to the initial value [7]: 31.0%
Total activity ([7]; whole batch): 48200 units
Solubility in 0.9% isotonic solution of sodium chloride [8]: soluble
Solubility in 95% ethanol [8]: substantially insoluble
Solubility in chloroform [8]: substantially insoluble
Solubility in ether [8]: substantially insoluble
Hygroscopicity [8]: hygroscopic
Solubility in water [8]: soluble

B3: 2: polysaccharide derivative of fibrinolysin from oxidized polyglucin with the molecular mass of 110,000 and the oxidation degree of 20±2% (conjugate, UniProt P00747 20-580; P00747 581-810, looked up)
Plasmin heavy chain A: EPLDDYVNTQGASLFSVTKKQLGAGSIEECAAKCEEDEEFTCRAFQYHSKEQQCVIMAENRKSSIIIRMRDVVLFEKKVYLSECKTGNGKNYRGTMSKTKNGITCQKWSSTSPHRPRFSPATHPSEGLEENYCRNPDNDPQGPWCYTTDPEKRYDYCDILECEEECMHCSGENYDGKISKTMSGLECQAWDSQSPHAHGYIPSKFPNKNLKKNYCRNPDRELRPWCFTTDPNKRWELCDIPRCTTPPPSSGPTYQCLKGTGENYRGNVAVTVSGHTCQHWSAQTPHTHNRTPENFPCKNLDENYCRNPDGKRAPWCHTTNSQVRWEYCKIPSCDSSPVSTEQLAPTAPPELTPVVQDCYHGDGQSYRGTSSTTTTGKKCQSWSSMTPHRHQKTPENYPNAGLTMNYCRNPDADKGPWCFTTDPSVRWEYCNLKKCSGTEASVVAPPPVVLLPDVETPSEEDCMFGNGKGYRGKRATTVTGTPCQDWAAQEPHRHSIFTPETNPRAGLEKNYCRNPDGDVGGPWCYTTNPRKLYDYCDVPQCAAPSFDCGKPQVEPKKCPGR
Plasmin light chain B: VVGGCVAHPHSWPWQVSLRTRFGMHFCGGTLISPEWVLTAAHCLEKSPRPSSYKVILGAHQEVNLEPHVQEIEVSRLFLEPTRKDIALLKLSSPAVITDKVIPACLPSPNYVVADRTECFITGWGETQGTFGAGLLKEAQLPVIENKVCNRYEFLNGRVQSTELCAGHLAGGTDSCQGDSGGPLVCFEKDKYILQGVTSWGLGCARPNKPGVYVRVSRFVTWIEGVMRNN
modifications: plasmin conjugated to oxidized polyglucin
Specific (fibrinolytic) activity [7]: 24 units/mg
Total activity relative to the initial value [7]: 30%
Solubility in 0.9% isotonic solution of sodium chloride [8]: readily soluble
Solubility in 95% ethanol [8]: substantially insoluble
Solubility in chloroform [8]: substantially insoluble
Solubility in ether [8]: substantially insoluble
Hygroscopicity [8]: hygroscopic
Solubility in water [8]: readily soluble
